For test [1], the target named is T1, PDE6D (phosphodiesterase 6 delta), wild type, polyhistidine tag removed (UniProt O43924 1-150). Put plainly: FP; replicate 3.
In test [2] the target is T1, PDE6D (phosphodiesterase 6 delta), wild …. Description: FP; average of 3 replicates.
Test [3] has the same target. Description: FP; + compound-1, replicate 1.
Test [4] has the same target. Put plainly: FP; + compound-1, replicate 2.
The target is the same in test [5]. Put plainly: FP; + compound-1, replicate 3.
The target is the same in test [6]. Put plainly: FP; in the presence of 500 uM Compound-2.
For test [7] the target is unchanged. Put plainly: FP; + compound-1, average of 3 replicates.

*: point of attachment. Farnesyl = CC(C)=CCC/C(C)=C/CC/C(C)=C/C*

In the case of {FAM}-KKKKKKSKTKC(Farnesyl)-OMe [fluorescein-labeled KRAS HVR peptide, FAM-KKKKKKSKTKC(OMe)-Far], the Kd (as a rule, a measure of binding affinity in units of concentration) in test [1] was 1100 nM; in test [2] it was 1400 nM; in test [3], 1000 nM; in test [4], 1700 nM; in test [5] it was 1200 nM; in test [6] it was 55200 nM. The equilibrium dissociation constant (Kd) in test [7] turned out to be 1300 nM.
